± gives the uncertainty stated by the source.
Test: self-splicing fitness, log relative to wild type (ln ratio); higher = more splicing; Tetrahymena group I intron in knt gene, E. coli kanamycin selection, DiMSum; sequences stand for … in CUCUCU…GGAGGGAAAAGUUAUCAGGCAUGCACCUGGUAGCUAGUCUUUAAACCAAUAGAUUGCAUCGGUUUAAAAGGCAAGACCGUCAAAUUGCGGGAAAGGGGUCAACAGCCGUUCAGUACCAAGUCUCAGGGGAAACUUUGAGAUGGCCUUGCAAAGGGUAUGGUAAUAAGCUGACGGACAUGGUCCUAACCACGCAGCCAAGUCCUAAGUCAACAGAUCUUCUGUUGAUAUGGAUGCAGUUCACAGACUAAAUGUCGGUCGGGGAAGAUGUAUUCUUCUCAUAAGAUAUAGUCGGACCUCUCCUUAAUGGGAGCUAGCGGAUGAAGUGAUGCAACACUGGAGCCGCUGGGAACUAAUUUGUAUGCGAAAGUAUAUUGAUUAGUUUUGGAGUACUCGUGGUCG
Summary of the method: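 Library with all eight P1ex-region intron nucleotides randomised, intron inside the knt kanamycin-resistance gene on pET-22b(+), in E. coli BL21(DE3). Cells grew overnight at 37°C or 30°C on LB agar with or without 25 μg/mL kanamycin (plus 100 μg/mL carbenicillin, 50 μM IPTG, 0.2% rhamnose), in six replicate transformations. Pooled colonies were amplicon-sequenced on Illumina HiSeq 2500. DiMSum fitness is the error-weighted combination of wild-type-normalised replicate fold changes, kanamycin versus none.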

Sequence: CGGAAGCAAUAUUACGCUCU
- self-splicing fitness (ln) (37 °C): -1.81 ± 0.44

Sequence: CUUAAGCAAUAUUACGCAAU
- self-splicing fitness (ln) (37 °C): -2.62 ± 0.44

Sequence: UGGCAGCAAUAUUACGUUAA
- self-splicing fitness (ln) (30 °C): -1.16 ± 0.084
- self-splicing fitness (ln) (37 °C): -0.28 ± 0.084

Sequence: GCUGAGCAAUAUUACGCGUG
- self-splicing fitness (ln) (30 °C): -1.54 ± 0.11
- self-splicing fitness (ln) (37 °C): -0.878 ± 0.13

Sequence: GAACAGCAAUAUUACGAAAU
- self-splicing fitness (ln) (30 °C): -1.67 ± 0.12
- self-splicing fitness (ln) (37 °C): -0.204 ± 0.14

Sequence: CUACAGCAAUAUUACGUGUC
- self-splicing fitness (ln) (30 °C): -3.95 ± 0.14
- self-splicing fitness (ln) (37 °C): -2.73 ± 0.15

Sequence: GUUCAGCAAUAUUACGCGGU
- self-splicing fitness (ln) (30 °C): -1.52 ± 0.11
- self-splicing fitness (ln) (37 °C): -1.69 ± 0.14

Sequence: AUAUAGCAAUAUUACGCAUA
- self-splicing fitness (ln) (30 °C): -2.02 ± 0.26
- self-splicing fitness (ln) (37 °C): -0.946 ± 0.26

Sequence: UAUGAGCAAUAUUACGAUUA
- self-splicing fitness (ln) (30 °C): -0.445 ± 0.094
- self-splicing fitness (ln) (37 °C): 0.467 ± 0.093

Sequence: GUUUAGCAAUAUUACGGCCU
- self-splicing fitness (ln) (30 °C): -0.716 ± 0.15
- self-splicing fitness (ln) (37 °C): 0.714 ± 0.15

Sequence: GGUCAGCAAUAUUACGUCGC
- self-splicing fitness (ln) (30 °C): -0.517 ± 0.11
- self-splicing fitness (ln) (37 °C): 0.282 ± 0.12

Sequence: UGACAGCAAUAUUACGAGUU
- self-splicing fitness (ln) (30 °C): -3.89 ± 0.2
- self-splicing fitness (ln) (37 °C): -2.86 ± 0.19

Sequence: GCGCAGCAAUAUUACGUGGG
- self-splicing fitness (ln) (30 °C): -2.53 ± 0.1
- self-splicing fitness (ln) (37 °C): -1.6 ± 0.11

Sequence: UCUCAGCAAUAUUACGGUUU
- self-splicing fitness (ln) (30 °C): -1.91 ± 0.082
- self-splicing fitness (ln) (37 °C): -0.695 ± 0.081

Sequence: CUCAAGCAAUAUUACGAACU
- self-splicing fitness (ln) (30 °C): -3.03 ± 0.2
- self-splicing fitness (ln) (37 °C): -1.27 ± 0.17

Sequence: AGACAGCAAUAUUACGCGUG
- self-splicing fitness (ln) (30 °C): -1.91 ± 0.075
- self-splicing fitness (ln) (37 °C): -0.597 ± 0.086

Sequence: GCGCAGCAAUAUUACGUUCU
- self-splicing fitness (ln) (30 °C): -0.657 ± 0.093
- self-splicing fitness (ln) (37 °C): 0.0134 ± 0.11

Sequence: CCCUAGCAAUAUUACGAUAA
- self-splicing fitness (ln) (30 °C): -4.04 ± 0.22
- self-splicing fitness (ln) (37 °C): -2.48 ± 0.22

Sequence: ACGCAGCAAUAUUACGCGGG
- self-splicing fitness (ln) (30 °C): -2.94 ± 0.12
- self-splicing fitness (ln) (37 °C): -0.419 ± 0.099

Sequence: CUACAGCAAUAUUACGACCU
- self-splicing fitness (ln) (30 °C): -4.15 ± 0.46
- self-splicing fitness (ln) (37 °C): -0.863 ± 0.17

Sequence: GCUAAGCAAUAUUACGAUGG
- self-splicing fitness (ln) (30 °C): -0.808 ± 0.072
- self-splicing fitness (ln) (37 °C): -0.4 ± 0.098

Sequence: GGUAAGCAAUAUUACGGCAU
- self-splicing fitness (ln) (30 °C): -0.173 ± 0.078
- self-splicing fitness (ln) (37 °C): 0.827 ± 0.11

Sequence: GUAUAGCAAUAUUACGGGGG
- self-splicing fitness (ln) (30 °C): -3.63 ± 0.37
- self-splicing fitness (ln) (37 °C): -2.53 ± 0.48

Sequence: UUGAAGCAAUAUUACGAAGG
- self-splicing fitness (ln) (30 °C): -1.42 ± 0.13
- self-splicing fitness (ln) (37 °C): -0.248 ± 0.17

Sequence: GCGAAGCAAUAUUACGGGGC
- self-splicing fitness (ln) (30 °C): -3.1 ± 0.24
- self-splicing fitness (ln) (37 °C): -1.82 ± 0.23

Sequence: CCCGAGCAAUAUUACGAGGA
- self-splicing fitness (ln) (30 °C): -2.48 ± 0.17
- self-splicing fitness (ln) (37 °C): -0.976 ± 0.11

Sequence: UUACAGCAAUAUUACGAAAA
- self-splicing fitness (ln) (30 °C): -2.35 ± 0.17
- self-splicing fitness (ln) (37 °C): -0.806 ± 0.14

Sequence: GGAAAGCAAUAUUACGUUUU
- self-splicing fitness (ln) (30 °C): -3.05 ± 0.14
- self-splicing fitness (ln) (37 °C): -2.18 ± 0.18

Sequence: AAUAAGCAAUAUUACGUAGA
- self-splicing fitness (ln) (30 °C): -1.51 ± 0.11
- self-splicing fitness (ln) (37 °C): -0.998 ± 0.13

Sequence: AAGAAGCAAUAUUACGGCGU
- self-splicing fitness (ln) (30 °C): 0.0118 ± 0.086
- self-splicing fitness (ln) (37 °C): 0.334 ± 0.11

Sequence: CUCCAGCAAUAUUACGGACU
- self-splicing fitness (ln) (30 °C): -2.61 ± 0.24
- self-splicing fitness (ln) (37 °C): -2.07 ± 0.33

Sequence: AGUAAGCAAUAUUACGGGCU
- self-splicing fitness (ln) (30 °C): -1.28 ± 0.12
- self-splicing fitness (ln) (37 °C): -1.6 ± 0.17

Sequence: CGUGAGCAAUAUUACGUGCA
- self-splicing fitness (ln) (30 °C): -1.36 ± 0.13
- self-splicing fitness (ln) (37 °C): 0.0971 ± 0.14

Sequence: AUAAAGCAAUAUUACGCUAA
- self-splicing fitness (ln) (30 °C): -0.787 ± 0.11
- self-splicing fitness (ln) (37 °C): -0.736 ± 0.14

Sequence: GAACAGCAAUAUUACGCAUA
- self-splicing fitness (ln) (30 °C): -0.914 ± 0.079
- self-splicing fitness (ln) (37 °C): -0.68 ± 0.094

Sequence: UCCCAGCAAUAUUACGGCGU
- self-splicing fitness (ln) (30 °C): -0.605 ± 0.057
- self-splicing fitness (ln) (37 °C): 0.275 ± 0.071

Sequence: CGUAAGCAAUAUUACGGCGC
- self-splicing fitness (ln) (30 °C): -2.21 ± 0.26
- self-splicing fitness (ln) (37 °C): -2.2 ± 0.42

Sequence: UUACAGCAAUAUUACGUUUG
- self-splicing fitness (ln) (30 °C): -1.54 ± 0.074
- self-splicing fitness (ln) (37 °C): -1.14 ± 0.094

Sequence: CCAGAGCAAUAUUACGGGUA
- self-splicing fitness (ln) (30 °C): -2.35 ± 0.29
- self-splicing fitness (ln) (37 °C): -2.3 ± 0.3

Sequence: ACGGAGCAAUAUUACGCCAA
- self-splicing fitness (ln) (30 °C): -3.46 ± 0.33
- self-splicing fitness (ln) (37 °C): -3.34 ± 0.47

Sequence: AAGAAGCAAUAUUACGUGCU
- self-splicing fitness (ln) (30 °C): -2.37 ± 0.087
- self-splicing fitness (ln) (37 °C): -1.3 ± 0.082

Sequence: ACCUAGCAAUAUUACGGAUC
- self-splicing fitness (ln) (30 °C): -2.65 ± 0.13
- self-splicing fitness (ln) (37 °C): -1.35 ± 0.15

Sequence: CCGUAGCAAUAUUACGUGAC
- self-splicing fitness (ln) (30 °C): -2.36 ± 0.15

Sequence: CCAUAGCAAUAUUACGCAUG
- self-splicing fitness (ln) (30 °C): -3.37 ± 0.19
- self-splicing fitness (ln) (37 °C): -0.732 ± 0.13

Sequence: AUUAAGCAAUAUUACGUUCA
- self-splicing fitness (ln) (30 °C): -0.728 ± 0.092
- self-splicing fitness (ln) (37 °C): -0.399 ± 0.12

Sequence: GAGCAGCAAUAUUACGCAUG
- self-splicing fitness (ln) (30 °C): -3.03 ± 0.34
- self-splicing fitness (ln) (37 °C): -1.67 ± 0.31

Sequence: UGACAGCAAUAUUACGAUAC
- self-splicing fitness (ln) (30 °C): -3.36 ± 0.22
- self-splicing fitness (ln) (37 °C): -1.61 ± 0.19

Sequence: GCUUAGCAAUAUUACGUCAG
- self-splicing fitness (ln) (30 °C): -2.36 ± 0.22

Sequence: UUAUAGCAAUAUUACGUAUC
- self-splicing fitness (ln) (30 °C): -3.79 ± 0.31
- self-splicing fitness (ln) (37 °C): -3.04 ± 0.32

Sequence: GAUCAGCAAUAUUACGGGGC
- self-splicing fitness (ln) (30 °C): -3.2 ± 0.25
- self-splicing fitness (ln) (37 °C): -2.38 ± 0.22

Sequence: AAGGAGCAAUAUUACGAUAU
- self-splicing fitness (ln) (30 °C): -3.03 ± 0.32
- self-splicing fitness (ln) (37 °C): -2.37 ± 0.45

Sequence: UCCUAGCAAUAUUACGGAGG
- self-splicing fitness (ln) (30 °C): -2.63 ± 0.17
- self-splicing fitness (ln) (37 °C): -1.73 ± 0.2

Sequence: UCCUAGCAAUAUUACGGCGG
- self-splicing fitness (ln) (30 °C): -3.94 ± 0.27
- self-splicing fitness (ln) (37 °C): -2.92 ± 0.2

Sequence: AUCAAGCAAUAUUACGAACU
- self-splicing fitness (ln) (30 °C): -0.00363 ± 0.11
- self-splicing fitness (ln) (37 °C): 0.0259 ± 0.11

Sequence: UAUGAGCAAUAUUACGGGAU
- self-splicing fitness (ln) (30 °C): -3.06 ± 0.21
- self-splicing fitness (ln) (37 °C): -2.35 ± 0.29

Sequence: GGAUAGCAAUAUUACGUAGC
- self-splicing fitness (ln) (30 °C): -3.55 ± 0.2
- self-splicing fitness (ln) (37 °C): -1.06 ± 0.16

Sequence: CAAAAGCAAUAUUACGGAGG
- self-splicing fitness (ln) (30 °C): -0.939 ± 0.096
- self-splicing fitness (ln) (37 °C): -0.844 ± 0.13

Sequence: UCGAAGCAAUAUUACGACCU
- self-splicing fitness (ln) (30 °C): -1.51 ± 0.16
- self-splicing fitness (ln) (37 °C): -1.1 ± 0.18

Sequence: UACCAGCAAUAUUACGUUUA
- self-splicing fitness (ln) (30 °C): -0.529 ± 0.052
- self-splicing fitness (ln) (37 °C): -0.264 ± 0.064

Sequence: UCGUAGCAAUAUUACGUGAU
- self-splicing fitness (ln) (30 °C): -2.2 ± 0.2
- self-splicing fitness (ln) (37 °C): -1.48 ± 0.46

Sequence: GCACAGCAAUAUUACGGUCC
- self-splicing fitness (ln) (30 °C): -0.798 ± 0.062
- self-splicing fitness (ln) (37 °C): 0.0593 ± 0.082

Sequence: CUACAGCAAUAUUACGCAAU
- self-splicing fitness (ln) (30 °C): -3.8 ± 0.4
- self-splicing fitness (ln) (37 °C): -2.86 ± 0.4

Sequence: UACUAGCAAUAUUACGUUUC
- self-splicing fitness (ln) (30 °C): -4.15 ± 0.33
- self-splicing fitness (ln) (37 °C): -2.53 ± 0.23

Sequence: CAUGAGCAAUAUUACGCGGC
- self-splicing fitness (ln) (30 °C): -2.22 ± 0.43
- self-splicing fitness (ln) (37 °C): -2.58 ± 0.29

Sequence: AGACAGCAAUAUUACGUUAU
- self-splicing fitness (ln) (30 °C): -2.29 ± 0.1
- self-splicing fitness (ln) (37 °C): -2.06 ± 0.12

Sequence: GUGAAGCAAUAUUACGAUUA
- self-splicing fitness (ln) (30 °C): 0.198 ± 0.084
- self-splicing fitness (ln) (37 °C): -0.124 ± 0.13

— the supplement of paper PMC7877785
